Experimental data taken from article PMC10322703 (Nature Microbiology, 2023).

B1: SNV-42, human monoclonal antibody (IgG1) (antibody, V domains shown)
VH: EVQLVESGGGLVQPGGSLRLSCAASGFTFSTYEMNWVRQAPGKGLEWVSYIRSSGSTVYYADSVKGRFTISRDNAKNLLYLQMNSLRAGDTAVYYCARIPGGYTGYFDYWGQGALVTVSS
VL: QSVLTQPPSVSGAPGQRVTISCTGSSSNIGAGYYVHWYQQLPGTVPKLLIYGNNNRPSGVPDRFSGSKSGTSASLAITGLQTEDEADYYCQSYDSSLSGWVFGGGTKLTVL
B2: SNV-42 F(ab')2 (other)
chain 1: EVQLVESGGGLVQPGGSLRLSCAASGFTFSTYEMNWVRQAPGKGLEWVSYIRSSGSTVYYADSVKGRFTISRDNAKNLLYLQMNSLRAGDTAVYYCARIPGGYTGYFDYWGQGALVTVSS
chain 2: QSVLTQPPSVSGAPGQRVTISCTGSSSNIGAGYYVHWYQQLPGTVPKLLIYGNNNRPSGVPDRFSGSKSGTSASLAITGLQTEDEADYYCQSYDSSLSGWVFGGGTKLTVL
B3: SNV-42 Fab (Fab, V domains shown)
VH: EVQLVESGGGLVQPGGSLRLSCAASGFTFSTYEMNWVRQAPGKGLEWVSYIRSSGSTVYYADSVKGRFTISRDNAKNLLYLQMNSLRAGDTAVYYCARIPGGYTGYFDYWGQGALVTVSS
VL: QSVLTQPPSVSGAPGQRVTISCTGSSSNIGAGYYVHWYQQLPGTVPKLLIYGNNNRPSGVPDRFSGSKSGTSASLAITGLQTEDEADYYCQSYDSSLSGWVFGGGTKLTVL
B4: SNV-42^GR, germline-revertant form of SNV-42 (IgG1) (antibody, V domains shown)
VH: EVQLVESGGGLVQPGGSLRLSCAASGFTFSSYEMNWVRQAPGKGLEWVSYISSSGSTIYYADSVKGRFTISRDNAKNSLYLQMNSLRAEDTAVYYCARIPGGYSGYFDYWGQGTLVTVSS
VL: QSVLTQPPSVSGAPGQRVTISCTGSSSNIGAGYDVHWYQQLPGTAPKLLIYGNSNRPSGVPDRFSGSKSGTSASLAITGLQAEDEADYYCQSYDSSLSGWVFGGGTKLTVL

Biological target: SNV Gn^H, recombinant histidine-tagged N-terminal ectodomain region (head domain) of Sin Nombre viru (Sin Nombre virus, UniProt Q89905)
Experiment: BLI
Conditions: both partners purified

Binder | Kd [nM] | koff [s⁻¹] | kon [M⁻¹ s⁻¹]
B1 | < 0.001 | < 1e-07 | 132000
B2 | < 0.001 | < 1e-07 | 61400
B3 |  | 0.00561 | 139000
B4 | 0.811 | 0.000454 | 514000
